# Test results taken from the supplement of paper PMC10567573.
# B1: ADAMTS4 (parent)
# chain: SFRKFRYGYNNVVTIPAGATHILV
# B2: UBE2R2 (parent)
# chain: DPQSGELPSERWNPTQNVRTILLS
# Variants of: B1
# Experiment: protein stability index of a GFP-peptide fusion (GPS, HEK-293T) (PSI 1-6); higher = more stable
# Conditions: c terminus: a fixed tail appended
# 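Also: lentivirally expressed fusions sorted by FACS into six bins by GFP to DsRed ratio, PSI derived from sequencing read proportions per bin multiplied by bin number.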
row,Variant,protein stability index
1,SFRKDRYGYNNVVTIPAGATHILV [F5D],2.21
2,SFRKVRYGYNNVVTIPAGATHILV [F5V],3.85
3,SFRKPRYGYNNVVTIPAGATHILV [F5P],1.88
4,SFRKKRYGYNNVVTIPAGATHILV [F5K],1.77
5,SFRKGRYGYNNVVTIPAGATHILV [F5G],2.3
6,SFRKSRYGYNNVVTIPAGATHILV [F5S],1.87
7,SFRKARYGYNNVVTIPAGATHILV [F5A],2.44
8,SFRKMRYGYNNVVTIPAGATHILV [F5M],3.23
9,SFRKWRYGYNNVVTIPAGATHILV [F5W],2.87
10,SFRKLRYGYNNVVTIPAGATHILV [F5L],2.78
11,SFRKHRYGYNNVVTIPAGATHILV [F5H],1.66
12,SFRKERYGYNNVVTIPAGATHILV [F5E],2.51
13,SFRKYRYGYNNVVTIPAGATHILV [F5Y],1.98
14,SFRKQRYGYNNVVTIPAGATHILV [F5Q],1.92
15,SFRKRRYGYNNVVTIPAGATHILV [F5R],3.02
16,SFRRFRYGYNNVVTIPAGATHILV [K4R],2.88
17,SFRGFRYGYNNVVTIPAGATHILV [K4G],2.05
18,SFRHFRYGYNNVVTIPAGATHILV [K4H],2.56
19,SFRPFRYGYNNVVTIPAGATHILV [K4P],3.29
20,SFRMFRYGYNNVVTIPAGATHILV [K4M],2.08
21,SFRWFRYGYNNVVTIPAGATHILV [K4W],3.02
22,SFRVFRYGYNNVVTIPAGATHILV [K4V],1.97
23,SFREFRYGYNNVVTIPAGATHILV [K4E],1.51
24,SFRYFRYGYNNVVTIPAGATHILV [K4Y],3.11
25,SFRQFRYGYNNVVTIPAGATHILV [K4Q],3.78
26,SFRFFRYGYNNVVTIPAGATHILV [K4F],2.78

row,Variant,protein stability index
1,SFRAFRYGYNNVVTIPAGATHILV [K4A],3.08
2,SFRDFRYGYNNVVTIPAGATHILV [K4D],1.76
3,SFRNFRYGYNNVVTIPAGATHILV [K4N],3.74
4,SFRLFRYGYNNVVTIPAGATHILV [K4L],2.71
5,SFRSFRYGYNNVVTIPAGATHILV [K4S],2.6
6,SFRCFRYGYNNVVTIPAGATHILV [K4C],2.55
7,SFRTFRYGYNNVVTIPAGATHILV [K4T],2.68
8,SFAKFRYGYNNVVTIPAGATHILV [R3A],2.45
9,SFDKFRYGYNNVVTIPAGATHILV [R3D],1.61
10,SFNKFRYGYNNVVTIPAGATHILV [R3N],2.89
11,SFIKFRYGYNNVVTIPAGATHILV [R3I],3.31
12,SFWKFRYGYNNVVTIPAGATHILV [R3W],2.24
13,SFEKFRYGYNNVVTIPAGATHILV [R3E],2.13
14,SFGKFRYGYNNVVTIPAGATHILV [R3G],2.75
15,SFCKFRYGYNNVVTIPAGATHILV [R3C],3.97
16,SFVKFRYGYNNVVTIPAGATHILV [R3V],2.99
17,SFHKFRYGYNNVVTIPAGATHILV [R3H],1.76
18,SFLKFRYGYNNVVTIPAGATHILV [R3L],3.11
19,SFQKFRYGYNNVVTIPAGATHILV [R3Q],2.14
20,SFMKFRYGYNNVVTIPAGATHILV [R3M],1.83
21,SFTKFRYGYNNVVTIPAGATHILV [R3T],1.6
22,SFYKFRYGYNNVVTIPAGATHILV [R3Y],2.37
23,SFSKFRYGYNNVVTIPAGATHILV [R3S],2.58
24,SFFKFRYGYNNVVTIPAGATHILV [R3F],3.06
25,SFKKFRYGYNNVVTIPAGATHILV [R3K],3.1

# Variants of: B2
# Experiment: as above
# Conditions: c terminus: a fixed tail appended
row,Variant,protein stability index
1,DPQSGELPSERWNPTQNVRTILLA [S24A],2.82
2,DPQSGELPSERWNPTQNVRTILLY [S24Y],2.04
3,DPQSGELPSERWNPTQNVRTILLW [S24W],1.61
4,DPQSGELPSERWNPTQNVRTILLR [S24R],3.16
5,DPQSGELPSERWNPTQNVRTILLT [S24T],3.14
6,DPQSGELPSERWNPTQNVRTILLK [S24K],4.34
7,DPQSGELPSERWNPTQNVRTILLH [S24H],3.58
8,DPQSGELPSERWNPTQNVRTILLN [S24N],3.86
9,DPQSGELPSERWNPTQNVRTILLL [S24L],1.56
10,DPQSGELPSERWNPTQNVRTILLD [S24D],4.43
11,DPQSGELPSERWNPTQNVRTILLI [S24I],1.84
12,DPQSGELPSERWNPTQNVRTILLP [S24P],3.95
13,DPQSGELPSERWNPTQNVRTILLF [S24F],1.82
14,DPQSGELPSERWNPTQNVRTILLV [S24V],2.81
15,DPQSGELPSERWNPTQNVRTILLG [S24G],3.4
16,DPQSGELPSERWNPTQNVRTILLQ [S24Q],4.07
17,DPQSGELPSERWNPTQNVRTILLM [S24M],2.23
18,DPQSGELPSERWNPTQNVRTILLC [S24C],2.35
19,DPQSGELPSERWNPTQNVRTILLE [S24E],4.23
20,DPQSGELPSERWNPTQNVRTILNS [L23N],4.87
21,DPQSGELPSERWNPTQNVRTILFS [L23F],3.44
22,DPQSGELPSERWNPTQNVRTILDS [L23D],4.91

row,Variant,protein stability index
1,DPQSGELPSERWNPTQNVRTILGS [L23G],3.77
2,DPQSGELPSERWNPTQNVRTILES [L23E],4.47
3,DPQSGELPSERWNPTQNVRTILAS [L23A],4.23
4,DPQSGELPSERWNPTQNVRTILKS [L23K],4.74
5,DPQSGELPSERWNPTQNVRTILTS [L23T],4.12
6,DPQSGELPSERWNPTQNVRTILHS [L23H],4.09
7,DPQSGELPSERWNPTQNVRTILCS [L23C],4.63
8,DPQSGELPSERWNPTQNVRTILMS [L23M],3.7
9,DPQSGELPSERWNPTQNVRTILSS [L23S],4.08
10,DPQSGELPSERWNPTQNVRTILPS [L23P],4.34
11,DPQSGELPSERWNPTQNVRTILIS [L23I],3.17
12,DPQSGELPSERWNPTQNVRTILQS [L23Q],4.65
13,DPQSGELPSERWNPTQNVRTILVS [L23V],3.34
14,DPQSGELPSERWNPTQNVRTILYS [L23Y],3.22
15,DPQSGELPSERWNPTQNVRTILWS [L23W],3.79
16,DPQSGELPSERWNPTQNVRTILRS [L23R],4.5
17,DPQSGELPSERWNPTQNVRTIVLS [L22V],3.42
18,DPQSGELPSERWNPTQNVRTISLS [L22S],3.88
19,DPQSGELPSERWNPTQNVRTIYLS [L22Y],2.89
20,DPQSGELPSERWNPTQNVRTIWLS [L22W],2.44
21,DPQSGELPSERWNPTQNVRTITLS [L22T],4.1
